Results taken from the nanobody polyreactivity screen of Harvey et al. (2022).

Test: yeast display, Sf9 membrane polyspecificity reagent, FACS + sequencing; frameworks hold sequencing errors
How it was run: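 Synthetic nanobody libraries on Saccharomyces cerevisiae BJ5465 were galactose-induced for 36–48 hours, stained 1 hour at 4 °C with 10% biotinylated, detergent-solubilized Sf9 membrane reagent and enriched on streptavidin microbeads. FACS then separated cells into low and high (top ~1%) gates by anti-HA (expression) and streptavidin (reagent binding) fluorescence. Genes were colony-PCR amplified, MiSeq 2 × 250 sequenced and CDR-length filtered. A clone's polyreactivity label is that of its gate of origin.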

Sequence | polyreactivity (PSR sort gate)
QVQLVESGGGLVQAGGSLRLSCAASGFTFGKYTMGWYRQAPGKERELVAAISRSGGSTYYADSVKGRFTISRDIAKNTVYFQMNSLKPEDTAVYYCAVDYTYDMDYWGQGTHVTVSS | high polyreactivity
QDQLVESGGGLVQAGGSLRLSCAASGITFQRYAMGGYRQAPGKERELVAVINFRGSNTFYADSVKGRFTISRDNAKNSVYLQMNSLIPEDTAVYYCAASYVIDIRGYGYWGQGTQVTVSS | low polyreactivity
QVQLVESGGGLVQAGGSLRLSCAASGRIFWANTMGWYRQAPGKERELVAAITYSGDSTYYADSVKGRFTISRDNAKNTVYLQMNSLKPEDTAVYYCNAVPSKFSWAVYRGQYDYDYWGQGTQVTVSS | low polyreactivity
QVQLVESGGGLVQAGGSLRLSCAASGRTIASYAMGWYRQAPGKERELVAAITSGGSTYYADSVKGRFTISRDNAKNTVYLQINSLKPEDTAVYYCARKHAIWRGYDYWGQGNQVTVSS | low polyreactivity
QVQLVESGGGLVQAGGSLRLSCADSGNILGYNAMGSYRQAPGKATELVAAISDNADSTYYADSVKGRFTISRDNAKNTVYLQMKSLKPEDTAVYYGAADWVHRTWLFWYTKYDYWGQGTQVTVSS | low polyreactivity
QVQLVESGGGLDQAGGSLRLSCAASGFIYPVYTMGGYRQAPGKERELVAAITQIGGSTHYADTVKGRFTISRDNAKNTVYLQMNSLKPDETAVYYCNAVPSYGTEYDYWGHGTQVTVSS | low polyreactivity
QVQLVESGGGLVQAGGSLRLSCAASGNTFYGYAMGWYRQAPGKERELVASITLSGDSTYYSDSVKGRFTISRDNAKNTVYLQMNSLKPEDTAGYYCAFDGYWYGGIFYYGGQGTQVTVSS | low polyreactivity
QVQLQESGGVQAGGSLRLSCAASGYISRSDVMGWYRQAPGKERELVATINNGTITYYADSVKGRFTISRDNAKNTVYLQMNSLIPEDTAVHYCAVVQSDTDSLYYWGQGTQVTVSS | low polyreactivity
QVQLVESGGGLVQPGGSLRLSCSASGRIFDNYAMGWYRQAPGKEREFVARITSSGGSTYYADSVKGRFTISRDYAKNTVYLQMYSLKPEDTAVYYCAKRGWSSYCRYDSWGQGTQVTVSS | high polyreactivity
QVQLVESGVGLFQAGGSLRLTCAASGSTFYLNDMGWYRQAPAKERELVAAIDWSGGSTYYADSVKGRFTNSRDNAKYYGYLQMNSLTPEDTAVYYCAARLFYEWRRLDYFIAWDYWGHGTQVTVSS | low polyreactivity
QVQLVESGGGLVKAGGSLRLSCAASGLISYPYSMGWYRQSPWKERELVAAITSRGTSTYYADSVKGRFTISRDNAKYTVYLHMNSLKPEDTAVYYCNAVVWRSRVDYYYWGQGTQVTVSS | high polyreactivity
QVQRVESGGGLVQAGGSLRLSCAASGSIRGYAMGWYRQAPVKERELVAAISWRGGSTYYADSVKGRFTISRDNAKNTVYLQMNSLKPEDTAVYYCATKGYPHVSTWMDSWGQGTQVTVSS | low polyreactivity
QVQLVESGGGLVQAGGSLRLSCAASGSISGWYAMGWYRQAPGKERELVADISSIAGSTYYADSVKGRFTISRDNAKNTVYLQMNSLKPEDTAVYYCAADRGFYYEYDYWGQGTQVTVSS | low polyreactivity
QVQLVESGRGLVQAGGSLRLSCAASGRTFAVSTMGWYRKAAGQERELVATISWSGGSTYYADSVKGRFTISRDNAKNTVYLQMNSLKPEDTAVYFCNADFTWGSYERDYWGQGTQGTVSS | high polyreactivity
QVQLVESGGGLVQAGGSLRLSCAASGSIFDKNAMGWYRQAPGKERELVAAIRRTSTTYYADSVKGRFTISRDNAKKTVYLQMNSLKPEDTAVYYCAATYGSGYWYPRYYYWGQGTQVTVSS | high polyreactivity
QVQLVESGGGLVQAGGSLRLSCAASGFTFTDYAMGWYRQAPGKERELVAAIYGIGGSTYYADSVKGRFTISRDNAKITVYLKMKSLKPEDTAVYYWNAYRSFTGYDYDYWGQGTQVTVSS | high polyreactivity

Sequence | polyreactivity (PSR sort gate)
QVQLVESGGGLVQAGGSLRLSCAASGFTFSAYDMGWYRQAPGKERELVAAISWSGGRTYYADSVKGRFTISRDNAKNTVYLQMNSLKPEDTAVYYCNAASLRYSYTLFDSWGQGTQVTVSS | high polyreactivity
QVQLVESGGGLVQAGGSLRLSCAASGRTFYRYAMGWYRQAPGKERELVAAISTRGGTTYYADSVKGRFTISRDNAKNTVYLQMNSLKPEDTAVYYCAADSVYAEDDSWGQGTQVTVSS | low polyreactivity
QVQLVESGGGLVQAGGSLRLICAASGRTFRYYAMGWYRQAPGKERELVASISDGGSTNYADSVKGRFTISRDNAKNTVYLQMNSLKPEDTAVYYCNAKAYVWYLYDEFGYWGQGTQVTVSS | low polyreactivity
QVQLVESGGGLVQAGGSLRLSCAASGRTFSLYAMGWYRQAPGNDRELVAAISYNGGRTYYADSVKGRFTISRDNAKNTVYLQLNCLKQDDTAVYYCAADHGDPGGYDYWGQGTQVTVSS | high polyreactivity
QVQLVESGGGLVQAGGSLRLSCAASGRIFGIYAMGWYRQAPGKERELVASITDGTITNYADSVKGRFTISRDNAKNTVYLQMNSLIPEDTAVYYCAAGTQAHAYVVRPIEMDYWGQGTQVTVSS | low polyreactivity
QVQLVESGGGLVQAGGSLRLSCAASGFTFYVNAMGWYRQAPGKERELVAVISTGGSTYYADSVKGRFTISRDNAKNTVYLQMNSLKPEDTAVYYCAKRDLPDRSGTPNVIPFDYWGQGTQVTVSS | low polyreactivity
QVQLVESGGGLVQAGGSLRLSCAASGGIFRYYAMGWYRQAPGKERELVAAISRSTRTYYADSVKGRFTISRDNAKITVYLQMNSLKPEDTEVYYCAAKYVSRRYSRYNYWGQGTQVSVSS | high polyreactivity
QVQLVESGRGLVQAGGSLRLSCAATGLTFNQYAMGWYRQAPGKERELVAAITRVGRTYYADSVKGRFTISRDNAKNSVYLQMNSLKPEDTAVYYWGYPDVAERRGSYYWGQGTQVTVSS | high polyreactivity
QVQLVESGGGLVQAGGSLRLSCAASGRIFYFYAMGWYRQAPGKERELVAAINIGGSTNYADSVKGRFTISRDNAKNTVYLQMNSLKPEDTAVYYCNAEAYSRSDYYRYDYWGQGTQVTVSS | low polyreactivity
QVQLVESGGGLVQAGGSLRLSCAASGRIFVSYAMGWYRQAPGKERELVAAITYSVDSTYYADSVKGRFTISRDNAKNTVYLQMNSLKPEDTAVSYCATDVDWAYGYQYEYWGQGTQVTVSS | low polyreactivity
QVQLVESGGGLVQAGGSLRLSCAASGSTFYYNAMGWYRQAPGKERELVARISRSGGSTYADSVKGRVTISRDNAKNTVYLQMNSLKPEDTAVYYCNADAYGTPEFTSYAVRYDYWGQGTQVTVSS | low polyreactivity
QVQLVESGGGLVQAGGSLRLSSAASGFTFPVYAMGWYRPATGKESELVAAISRRGGRTYYADSVKGRFTISRDNAKNRVYLQMNCLKPEDSAVYYCNKGETLYGSVPYDYWGQGTQLTVSS | high polyreactivity
QVQLVESGGGLVQAGGSLRLSCAASGITFDDYDMGWYIQAPGKEREFVAAISFSGSSTYYADSVKGRFTISRDNAKNTVYLQMNSLKPEDTAVYYCAAVTTGTITSKYNYWGQGTQVTVSS | low polyreactivity
HVQLVESGGGLVQAGGSLRLICAASGFIFRFNAMGWYRQAPGKERELVAAISGSGGITYYADSVKGRFTISRDNAKNTVYLQMNSLKPEDTAVYYCAARPLFGWRGYNYWGQGTQVTVSS | high polyreactivity
QVQLVESGGGLVQAGGSLRLSCAASGFIFWYNAMGWYRQAPGKERELVADNTSGGSTTYADSVKGRFTISRDNAKNTVYLQMNSLKPEDTAVYYCAASIRRYWLHPGDYWGQGTQVTVSS | low polyreactivity
QFQLVESGRGLVQAGGSLRLSCAASGSTILYYAMGWYRQAPGTERELVAAISSSDGSTYYADSVKGRFTISRDNAKYTVYLQMNSLKPEDTAVYYCNADFYWGYNYWGQGTQVTVSS | high polyreactivity
